Molar excess of importin β that prevented Nup153 binding to P-rC data for one substance are collected here from publication PMC2813275.

The test addresses GST-Nup153 (human wt Nup153) (human). Description: co-IP; competition: 200 ng P-rC with 200 ng GST-Nup153 and different concentrations of importin β together, 2 h at 37°C in transport buffer; anti-capsid beads; mAb414 blot.

The substance “importin β (karyopherin) (from UniProt Q14974 1-876) (natural protein)” displayed a molar excess of importin β that prevented Nup153 binding to P-rC of more than 150 fold.
